For the assay, the target named is M6P receptors on the surface of human fibroblasts (human), P11717. The assay can be described thus: cell-based or functional assay.

Values joined by “and” are separate entries in the source; they are usually repeats but may differ in a detail not shown here. Equal values may be shown once.

M6P receptors on the surface of human fibroblasts (human), P11717, sequence (P11717 41-2491): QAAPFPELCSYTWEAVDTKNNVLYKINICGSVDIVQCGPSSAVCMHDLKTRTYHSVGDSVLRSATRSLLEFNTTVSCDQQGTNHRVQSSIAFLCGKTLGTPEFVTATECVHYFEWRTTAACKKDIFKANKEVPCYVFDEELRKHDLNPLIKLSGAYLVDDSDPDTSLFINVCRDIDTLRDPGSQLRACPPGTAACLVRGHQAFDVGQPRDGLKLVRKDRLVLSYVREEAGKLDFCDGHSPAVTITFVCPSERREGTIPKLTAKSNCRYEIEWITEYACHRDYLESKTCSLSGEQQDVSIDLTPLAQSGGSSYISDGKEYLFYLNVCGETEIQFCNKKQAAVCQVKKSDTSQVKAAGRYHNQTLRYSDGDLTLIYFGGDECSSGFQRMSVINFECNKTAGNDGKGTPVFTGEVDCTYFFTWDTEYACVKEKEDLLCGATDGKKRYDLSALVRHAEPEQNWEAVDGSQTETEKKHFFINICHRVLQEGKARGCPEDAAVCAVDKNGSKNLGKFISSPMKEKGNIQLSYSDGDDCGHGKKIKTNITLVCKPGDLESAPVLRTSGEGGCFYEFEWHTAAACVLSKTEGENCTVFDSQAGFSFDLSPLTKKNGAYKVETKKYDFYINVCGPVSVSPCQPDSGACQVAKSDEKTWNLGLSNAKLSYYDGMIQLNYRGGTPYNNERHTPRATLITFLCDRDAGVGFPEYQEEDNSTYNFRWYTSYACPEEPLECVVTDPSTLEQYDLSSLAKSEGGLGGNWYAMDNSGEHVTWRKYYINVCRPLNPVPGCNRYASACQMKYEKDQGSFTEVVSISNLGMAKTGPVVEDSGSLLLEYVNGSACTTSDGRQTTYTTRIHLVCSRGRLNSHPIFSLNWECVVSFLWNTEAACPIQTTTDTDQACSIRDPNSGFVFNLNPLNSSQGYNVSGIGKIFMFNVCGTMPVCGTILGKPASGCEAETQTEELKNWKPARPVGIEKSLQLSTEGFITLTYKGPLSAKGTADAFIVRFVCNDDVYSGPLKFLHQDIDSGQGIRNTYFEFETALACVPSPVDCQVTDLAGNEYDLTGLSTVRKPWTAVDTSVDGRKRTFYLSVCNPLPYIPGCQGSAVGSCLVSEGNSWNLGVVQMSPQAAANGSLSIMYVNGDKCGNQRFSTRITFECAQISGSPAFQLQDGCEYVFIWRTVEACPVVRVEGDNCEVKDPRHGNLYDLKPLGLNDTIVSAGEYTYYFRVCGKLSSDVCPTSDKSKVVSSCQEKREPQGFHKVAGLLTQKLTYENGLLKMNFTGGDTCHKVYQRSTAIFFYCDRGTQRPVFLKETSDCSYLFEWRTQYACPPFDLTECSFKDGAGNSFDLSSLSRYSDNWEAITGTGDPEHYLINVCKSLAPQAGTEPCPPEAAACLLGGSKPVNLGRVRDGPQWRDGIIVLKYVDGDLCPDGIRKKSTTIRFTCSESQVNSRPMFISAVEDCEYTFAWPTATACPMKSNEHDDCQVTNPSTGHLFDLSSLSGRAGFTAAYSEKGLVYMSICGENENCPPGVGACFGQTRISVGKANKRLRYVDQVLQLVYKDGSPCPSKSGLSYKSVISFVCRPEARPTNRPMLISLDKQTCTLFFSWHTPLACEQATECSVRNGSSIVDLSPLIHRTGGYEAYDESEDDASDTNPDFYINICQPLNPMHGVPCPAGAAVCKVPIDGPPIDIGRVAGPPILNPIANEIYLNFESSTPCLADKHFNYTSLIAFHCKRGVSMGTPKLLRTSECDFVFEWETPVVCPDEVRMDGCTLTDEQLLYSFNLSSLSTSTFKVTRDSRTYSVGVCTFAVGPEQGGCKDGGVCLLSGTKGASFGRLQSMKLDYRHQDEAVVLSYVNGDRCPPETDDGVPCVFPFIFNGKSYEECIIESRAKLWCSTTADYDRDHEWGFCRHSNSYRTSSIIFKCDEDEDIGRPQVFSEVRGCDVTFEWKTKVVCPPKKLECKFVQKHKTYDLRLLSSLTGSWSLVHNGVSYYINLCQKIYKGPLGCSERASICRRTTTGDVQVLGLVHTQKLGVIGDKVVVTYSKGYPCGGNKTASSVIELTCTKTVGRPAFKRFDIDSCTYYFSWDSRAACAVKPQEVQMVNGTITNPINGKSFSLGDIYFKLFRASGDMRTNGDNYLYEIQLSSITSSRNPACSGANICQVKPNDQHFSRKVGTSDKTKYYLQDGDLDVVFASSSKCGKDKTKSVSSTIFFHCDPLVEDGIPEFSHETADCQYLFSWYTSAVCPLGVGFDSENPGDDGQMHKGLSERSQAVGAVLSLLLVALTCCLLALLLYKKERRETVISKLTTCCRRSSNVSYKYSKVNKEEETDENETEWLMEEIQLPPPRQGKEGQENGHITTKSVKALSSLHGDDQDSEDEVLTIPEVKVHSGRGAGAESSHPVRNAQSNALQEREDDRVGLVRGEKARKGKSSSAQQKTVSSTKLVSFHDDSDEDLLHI

B1: purified recombinant human iduronate-2-sulfatase (I2S) produced in serum-free medium, P22304 26-550 (enzyme)
chain: SETQANSTTDALNVLLIIVDDLRPSLGCYGDKLVRSPNIDQLASHSLLFQNAFAQQAVCAPSRVSFLTGRRPDTTRLYDFNSYWRVHAGNFSTIPQYFKENGYVTMSVGKVFHPGISSNHTDDSPYSWSFPPYHPSSEKYENTKTCRGPDGELHANLLCPVDVLDVPEGTLPDKQSTEQAIQLLEKMKTSASPFFLAVGYHKPHIPFRYPKEFQKLYPLENITLAPDPEVPDGLPPVAYNPWMDIRQREDVQALNISVPYGPIPVDFQRKIRQSYFASVSYLDTQVGRLLSALDDLQLANSTIIAFTSDHGWALGEHGEWAKYSNFDVATHVPLIFYVPGRTASLPEAGEKLFPYLDPFDSASQLMEPGRQSMDLVELVSLFPTLAGLAGLQVPPRCPVPSFHVELCREGKNLLKHFRFRDLEEDPYLPGNPRELIAYSQYPRPSDIPQWNSDKPSLKDIKIMGYSIRTIDYRYTVWVGFNPDEFLANFSDIHAGELYFVDSDPLQDHNMYNDSQGGDLFQLLMP
modifications: here or on the partner: cysteine corresponding to Cys59 of mature human I2S (SEQ ID NO:1) converted to C-alpha-formylglycine (87-95% in Table 4, 94% in Table 13); glycans bearing sialic acid and mannose-6-phosphate
Take B1: the Cell Uptake is 98; the Cellular Uptake (Bioassay) is 85% and 95% and 97%; the Internalization was found to be 83%.

The values are drawn from US20150313972A1.
